We go through five molecules from publication PMC7367873, “Dissecting the sequence determinants for dephosphorylation by the catalytic subunits of phosphatases PP1 and PP2A” (Nature Communications, 2020).

The test system of one assay is GFP-14-3-3β. Briefly: GFP-14-3-3β co-IP with LC-MS/MS, untreated GFP-14-3-3β versus GFP control (14-3-3 interactome). As to conditions: 3 replicates each. It is filed as binding, human.
Assay [1] relates to GFP-14-3-3β and its binding proteins. Briefly: GFP-14-3-3β co-IP with LC-MS/MS label-free quantification, untreated versus PP1c-treated. Also on record: species or system human. As to conditions: pairwise comparison PP1 vs untreated, 3 replicates each.
The mark [2] stands for this setting: pairwise comparison untreated GFP-14-3-3β vs GFP, student's t-test, LC-MS/MS label-free quantification.
Setting [3] is: student's t-test, LC-MS/MS label-free quantification.

B1: SAFB (protein, UniProt Q15424 2-915, looked up)
Scaffold attachment factor B1: AETLSGLGDSGAAGAAALSSASSETGTRRLSDLRVIDLRAELRKRNVDSSGNKSVLMERLKKAIEDEGGNPDEIEITSEGNKKTSKRSSKGRKPEEEGVEDNGLEENSGDGQEDVETSLENLQDIDIMDISVLDEAEIDNGSVADCVEDDDADNLQESLSDSRELVEGEMKELPEQLQEHAIEDKETINNLDTSSSDFTILQEIEEPSLEPENEKILDILGETCKSEPVKEESSELEQPFAQDTSSVGPDRKLAEEEDLFDSAHPEEGDLDLASESTAHAQSSKADSLLAVVKREPAEQPGDGERTDCEPVGLEPAVEQSSAASELAEASSEELAEAPTEAPSPEARDSKEDGRKFDFDACNEVPPAPKESSTSEGADQKMSSPEDDSDTKRLSKEEKGRSSCGRNFWVSGLSSTTRATDLKNLFSKYGKVVGAKVVTNARSPGARCYGFVTMSTAEEATKCINHLHKTELHGKMISVEKAKNEPVGKKTSDKRDSDGKKEKSSNSDRSTNLKRDDKCDRKDDAKKGDDGSGEKSKDQDDQKPGPSERSRATKSGSRGTERTVVMDKSKGVPVISVKTSGSKERASKSQDRKSASREKRSVVSFDKVKEPRKSRDSESHSRVRERSEREQRMQAQWEREERERLEIARERLAFQRQRLERERMERERLERERMHVEHERRREQERIHREREELRRQQELRYEQERRPAVRRPYDLDRRDDAYWPEAKRAALDERYHSDFNRQDRFHDFDHRDRGRYPDHSVDRREGSRSMMGEREGQHYPERHGGPERHGRDSRDGWGGYGSDKRMSEGRGLPPPPRRDWGDHGRREDDRSWQGTADGGMMDRDHKRWQGGERSMSGHSGPGHMMNRGGMSGRGSFAPGGASRGHPIPHGGMQGGFGGQSRGSRPSDARFTRRY
Turning to B1, the “Difference (log2), untreated vs GFP” value in the assay on GFP-14-3-3β (setting [2]) was 3.699 log2. Also, the “Difference (log2), PP1 vs untreated” value in assay [1] (setting [3]) is on record as -2.475 log2.

B2: HIRIP3 (protein, UniProt Q9BW71 1-556, looked up)
HIRA-interacting protein 3: MAREKEMQEFTRSFFRGRPDLSTLTHSIVRRRYLAHSGRSHLEPEEKQALKRLVEEELLKMQVDEAASREDKLDLTKKGKRPPTPCSDPERKRFRFNSESESGSEASSPDYFGPPAKNGVAAEVSPAKEENPRRASKAVEESSDEERQRDLPAQRGEESSEEEEKGYKGKTRKKPVVKKQAPGKASVSRKQAREESEESEAEPVQRTAKKVEGNKGTKSLKESEQESEEEILAQKKEQREEEVEEEEKEEDEEKGDWKPRTRSNGRRKSAREERSCKQKSQAKRLLGDSDSEEEQKEAASSGDDSGRDREPPVQRKSEDRTQLKGGKRLSGSSEDEEDSGKGEPTAKGSRKMARLGSTSGEESDLEREVSDSEAGGGPQGERKNRSSKKSSRKGRTRSSSSSSDGSPEAKGGKAGSGRRGEDHPAVMRLKRYIRACGAHRNYKKLLGSCCSHKERLSILRAELEALGMKGTPSLGKCRALKEQREEAAEVASLDVANIISGSGRPRRRTAWNPLGEAAPPGELYRRTLDSDEERPRPAPPDWSHMRGIISSDGESN
As for B2, the “Difference (log2), untreated vs GFP” value with GFP-14-3-3β (setting [2]) stood at 0.3778 log2. Besides, the “Difference (log2), PP1 vs untreated” value in assay [1] (setting [3]) is given as -2.4581 log2.

B3: PARD3 (protein, UniProt Q8TEW0 1-1356, looked up)
Partitioning defective 3 …: MKVTVCFGRTRVVVPCGDGHMKVFSLIQQAVTRYRKAIAKDPNYWIQVHRLEHGDGGILDLDDILCDVADDKDRLVAVFDEQDPHHGGDGTSASSTGTQSPEIFGSELGTNNVSAFQPYQATSEIEVTPSVLRANMPLHVRRSSDPALIGLSTSVSDSNFSSEEPSRKNPTRWSTTAGFLKQNTAGSPKTCDRKKDENYRSLPRDTSNWSNQFQRDNARSSLSASHPMVGKWLEKQEQDEDGTEEDNSRVEPVGHADTGLEHIPNFSLDDMVKLVEVPNDGGPLGIHVVPFSARGGRTLGLLVKRLEKGGKAEHENLFRENDCIVRINDGDLRNRRFEQAQHMFRQAMRTPIIWFHVVPAANKEQYEQLSQSEKNNYYSSRFSPDSQYIDNRSVNSAGLHTVQRAPRLNHPPEQIDSHSRLPHSAHPSGKPPSAPASAPQNVFSTTVSSGYNTKKIGKRLNIQLKKGTEGLGFSITSRDVTIGGSAPIYVKNILPRGAAIQDGRLKAGDRLIEVNGVDLVGKSQEEVVSLLRSTKMEGTVSLLVFRQEDAFHPRELNAEPSQMQIPKETKAEDEDIVLTPDGTREFLTFEVPLNDSGSAGLGVSVKGNRSKENHADLGIFVKSIINGGAASKDGRLRVNDQLIAVNGESLLGKTNQDAMETLRRSMSTEGNKRGMIQLIVARRISKCNELKSPGSPPGPELPIETALDDRERRISHSLYSGIEGLDESPSRNAALSRIMGESGKYQLSPTVNMPQDDTVIIEDDRLPVLPPHLSDQSSSSSHDDVGFVTADAGTWAKAAISDSADCSLSPDVDPVLAFQREGFGRQSMSEKRTKQFSDASQLDFVKTRKSKSMDLGIADETKLNTVDDQKAGSPSRDVGPSLGLKKSSSLESLQTAVAEVTLNGDIPFHRPRPRIIRGRGCNESFRAAIDKSYDKPAVDDDDEGMETLEEDTEESSRSGRESVSTASDQPSHSLERQMNGNQEKGDKTDRKKDKTGKEKKKDRDKEKDKMKAKKGMLKGLGDMFRFGKHRKDDKIEKTGKIKIQESFTSEEERIRMKQEQERIQAKTREFRERQARERDYAEIQDFHRTFGCDDELMYGGVSSYEGSMALNARPQSPREGHMMDALYAQVKKPRNSKPSPVDSNRSTPSNHDRIQRLRQEFQQAKQDEDVEDRRRTYSFEQPWPNARPATQSGRHSVSVEVQMQRQRQEERESSQQAQRQYSSLPRQSRKNASSVSQDSWEQNYSPGEGFQSAKENPRYSSYQGSRNGYLGGHGFNARVMLETQELLRQEQRRKEQQMKKQPPSEGPSNYDSYKKVQDPSYAPPKGPFRQDVPPSPSQVARLNRLQTPEKGRPFYS
As for B3, the “Difference (log2), untreated vs GFP” value in the assay with GFP-14-3-3β (setting [2]) was 5.534 log2. In assay [1] (setting [3]), the “Difference (log2), PP1 vs untreated” value is -2.404 log2.

B4: CLASP2 (protein, UniProt O75122 1-1294, looked up)
CLIP-associating protein 2: MAMGDDKSFDDEESVDGNRPSSAASAFKVPAPKTSGNPANSARKPGSAGGPKVGGASKEGGAGAVDEDDFIKAFTDVPSIQIYSSRELEETLNKIREILSDDKHDWDQRANALKKIRSLLVAGAAQYDCFFQHLRLLDGALKLSAKDLRSQVVREACITVAHLSTVLGNKFDHGAEAIVPTLFNLVPNSAKVMATSGCAAIRFIIRHTHVPRLIPLITSNCTSKSVPVRRRSFEFLDLLLQEWQTHSLERHAAVLVETIKKGIHDADAEARVEARKTYMGLRNHFPGEAETLYNSLEPSYQKSLQTYLKSSGSVASLPQSDRSSSSSQESLNRPFSSKWSTANPSTVAGRVSAGSSKASSLPGSLQRSRSDIDVNAAAGAKAHHAAGQSVRSGRLGAGALNAGSYASLEDTSDKLDGTASEDGRVRAKLSAPLAGMGNAKADSRGRSRTKMVSQSQPGSRSGSPGRVLTTTALSTVSSGVQRVLVNSASAQKRSKIPRSQGCSREASPSRLSVARSSRIPRPSVSQGCSREASRESSRDTSPVRSFQPLASRHHSRSTGALYAPEVYGASGPGYGISQSSRLSSSVSAMRVLNTGSDVEEAVADALKKPARRRYESYGMHSDDDANSDASSACSERSYSSRNGSIPTYMRQTEDVAEVLNRCASSNWSERKEGLLGLQNLLKNQRTLSRVELKRLCEIFTRMFADPHGKRVFSMFLETLVDFIQVHKDDLQDWLFVLLTQLLKKMGADLLGSVQAKVQKALDVTRESFPNDLQFNILMRFTVDQTQTPSLKVKVAILKYIETLAKQMDPGDFINSSETRLAVSRVITWTTEPKSSDVRKAAQSVLISLFELNTPEFTMLLGALPKTFQDGATKLLHNHLRNTGNGTQSSMGSPLTRPTPRSPANWSSPLTSPTNTSQNTLSPSAFDYDTENMNSEDIYSSLRGVTEAIQNFSFRSQEDMNEPLKRDSKKDDGDSMCGGPGMSDPRAGGDATDSSQTALDNKASLLHSMPTHSSPRSRDYNPYNYSDSISPFNKSALKEAMFDDDADQFPDDLSLDHSDLVAELLKELSNHNERVEERKIALYELMKLTQEESFSVWDEHFKTILLLLLETLGDKEPTIRALALKVLREILRHQPARFKNYAELTVMKTLEAHKDPHKEVVRSAEEAASVLATSISPEQCIKVLCPIIQTADYPINLAAIKMQTKVIERVSKETLNLLLPEIMPGLIQGYDNSESSVRKACVFCLVAVHAVIGDELKPHLSQLTGSKMKLLNLYIKRAQTGSGGADPTTDVSGQS
Turning to B4, the “Difference (log2), untreated vs GFP” value with GFP-14-3-3β (setting [2]) turned out to be 2.306 log2. Moreover, in assay [1] (setting [3]), the “Difference (log2), PP1 vs untreated” value was -2.4301 log2.

B5: MYPN (protein, UniProt Q86TC9 1-1320, looked up)
Myopalladin: MQDDSIEASTSISQLLRESYLAETRHRGNNERSRAEPSSNPCHFGSPSGAAEGGGGQDDLPDLSAFLSQEELDESVNLARLAINYDPLEKADETQARKRLSPDQMKHSPNLSFEPNFCQDNPRSPTSSKESPQEAKRPQYCSETQSKKVFLNKAADFIEELSSLFKSHSSKRIRPRACKNHKSKLESQNKVMQENSSSFSDLSERRERSSVPIPIPADTRDNEVNHALEQQEAKRREAEQAASEAAGGDTTPGSSPSSLYYEEPLGQPPRFTQKLRSREVPEGTRVQLDCIVVGIPPPQVRWYCEGKELENSPDIHIVQAGNLHSLTIAEAFEEDTGRYSCFASNIYGTDSTSAEIYIEGVSSSDSEGDPNKEEMNRIQKPNEVSSPPTTSAVIPPAVPQAQHLVAQPRVATIQQCQSPTNYLQGLDGKPIIAAPVFTKMLQNLSASEGQLVVFECRVKGAPSPKVEWYREGTLIEDSPDFRILQKKPRSMAEPEEICTLVIAEVFAEDSGCFTCTASNKYGTVSSIAQLHVRGNEDLSNNGSLHSANSTTNLAAIEPQPSPPHSEPPSVEQPPKPKLEGVLVNHNEPRSSSRIGLRVHFNLPEDDKGSEASSEAGVVTTRQTRPDSFQERFNGQATKTPEPSSPVKEPPPVLAKPKLDSTQLQQLHNQVLLEQHQLQNPPPSSPKEFPFSMTVLNSNAPPAVTTSSKQVKAPSSQTFSLARPKYFFPSTNTTAATVAPSSSPVFTLSSTPQTIQRTVSKESLLVSHPSVQTKSPGGLSIQNEPLPPGPTEPTPPPFTFSIPSGNQFQPRCVSPIPVSPTSRIQNPVAFLSSVLPSLPAIPPTNAMGLPRSAPSMPSQGLAKKNTKSPQPVNDDNIRETKNAVIRDLGKKITFSDVRPNQQEYKISSFEQRLMNEIEFRLERTPVDESDDEIQHDEIPTGKCIAPIFDKRLKHFRVTEGSPVTFTCKIVGIPVPKVYWFKDGKQISKRNEHCKMRREGDGTCSLHIESTTSDDDGNYTIMAANPQGRISCSGHLMVQSLPIRSRLTSAGQSHRGRSRVQERDKEPLQERFFRPHFLQAPGDMVAHEGRLCRLDCKVSGLPPPELTWLLNGQPVLPDASHKMLVRETGVHSLLIDPLTQRDAGTYKCIATNKTGQNSFSLELSVVAKEVKKAPVILEKLQNCGVPEGHPVRLECRVIGMPPPVFYWKKDNETIPCTRERISMHQDTTGYACLLIQPAKKSDAGWYTLSAKNEAGIVSCTARLDIYAQWHHQIPPPMSVRPSGSRYGSLTSKGLDIFSAFSSMESTMVYSCSSRSVVESDEL
For B5, in the assay on GFP-14-3-3β (log2 difference, pairwise comparison untreated vs GFP, label-free quantification), the “Difference (log2), untreated vs GFP” value is reported as -0.08833. The “Difference (log2), PP1 vs untreated” value in assay [1] (log2 difference, label-free quantification) came out at 1.556.
